In patent US20260049134A1 (UNIVERSITY OF FLORIDA RESEARCH FOUNDATION, published 2026):
Substitutions are numbered along the chain they refer to. Numbers in names are those of the source.

T1: IGSF11 (VSIG3)
T1 construct: coated protein in the ELISA; also called IGSF11-Fc (R&D Systems)
T1 chain: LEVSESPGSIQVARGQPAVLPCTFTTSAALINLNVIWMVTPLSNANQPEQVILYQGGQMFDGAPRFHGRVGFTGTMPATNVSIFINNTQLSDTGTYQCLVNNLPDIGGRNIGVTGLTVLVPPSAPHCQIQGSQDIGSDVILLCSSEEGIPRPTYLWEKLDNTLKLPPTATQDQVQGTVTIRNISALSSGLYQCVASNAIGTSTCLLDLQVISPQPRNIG

T2: HHLA2 (B7-H7)
T2 construct: coated protein in the ELISA; also called HHLA2-Fc (R&D Systems)
T2 chain: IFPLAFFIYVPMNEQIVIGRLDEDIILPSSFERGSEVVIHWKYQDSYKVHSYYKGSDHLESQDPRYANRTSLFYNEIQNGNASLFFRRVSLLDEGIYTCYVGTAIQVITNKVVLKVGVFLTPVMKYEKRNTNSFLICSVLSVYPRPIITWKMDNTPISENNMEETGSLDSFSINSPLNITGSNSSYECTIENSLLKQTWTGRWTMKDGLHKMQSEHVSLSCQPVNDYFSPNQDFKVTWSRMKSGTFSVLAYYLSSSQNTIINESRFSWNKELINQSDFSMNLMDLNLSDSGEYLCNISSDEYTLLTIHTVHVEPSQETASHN

T3: PTPRG-Fc (ECD of human PTPRG, aa 20-736, fused to human Fc gamma 1) (human, UniProt P23470 20-736)
T3 construct: Made in-house in Expi293 cells; Used in ELISA and SPR; also called recombinant PTPRG-Fc; PTRPG; not shown: human IgG1 Fc (Fc gamma 1) after the hinge
T3 sequence: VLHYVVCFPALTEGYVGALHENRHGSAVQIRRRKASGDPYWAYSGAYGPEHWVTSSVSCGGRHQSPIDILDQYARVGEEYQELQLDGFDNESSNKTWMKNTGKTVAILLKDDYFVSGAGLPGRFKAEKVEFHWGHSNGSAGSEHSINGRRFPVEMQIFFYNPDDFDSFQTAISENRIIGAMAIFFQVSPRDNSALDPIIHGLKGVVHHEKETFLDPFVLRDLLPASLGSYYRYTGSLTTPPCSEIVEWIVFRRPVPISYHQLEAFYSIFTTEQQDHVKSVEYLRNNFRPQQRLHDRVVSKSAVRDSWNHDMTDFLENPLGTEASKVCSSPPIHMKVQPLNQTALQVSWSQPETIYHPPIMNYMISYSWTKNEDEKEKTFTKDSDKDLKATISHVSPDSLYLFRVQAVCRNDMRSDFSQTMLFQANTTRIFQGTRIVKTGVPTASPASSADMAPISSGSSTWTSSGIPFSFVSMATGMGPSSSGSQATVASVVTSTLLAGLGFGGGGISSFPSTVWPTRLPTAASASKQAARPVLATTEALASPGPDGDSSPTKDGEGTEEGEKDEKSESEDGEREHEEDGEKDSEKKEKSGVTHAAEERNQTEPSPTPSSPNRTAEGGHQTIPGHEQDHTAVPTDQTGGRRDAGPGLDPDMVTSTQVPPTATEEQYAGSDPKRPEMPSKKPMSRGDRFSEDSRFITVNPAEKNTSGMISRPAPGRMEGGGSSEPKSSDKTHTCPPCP

T4: ANXA1
T4 construct: coated protein in the ELISA; also called ANXA1-His (R&D Systems)
T4 chain: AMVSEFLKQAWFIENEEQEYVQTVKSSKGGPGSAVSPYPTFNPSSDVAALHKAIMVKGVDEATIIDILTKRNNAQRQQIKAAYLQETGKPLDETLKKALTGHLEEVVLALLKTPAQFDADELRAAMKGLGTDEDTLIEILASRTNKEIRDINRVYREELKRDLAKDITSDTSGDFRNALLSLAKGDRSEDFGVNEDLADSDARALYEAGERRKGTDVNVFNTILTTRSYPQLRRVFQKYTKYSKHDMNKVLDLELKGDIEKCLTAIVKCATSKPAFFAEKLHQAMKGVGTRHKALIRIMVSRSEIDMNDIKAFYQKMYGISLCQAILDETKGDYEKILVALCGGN

T5: CADM1-His (Acro Biosystems) (human, UniProt Q9BY67 45-374)
T5 construct: Bought; also called CADM1/IGSF4A; not shown: His tag of the bought protein
T5 sequence: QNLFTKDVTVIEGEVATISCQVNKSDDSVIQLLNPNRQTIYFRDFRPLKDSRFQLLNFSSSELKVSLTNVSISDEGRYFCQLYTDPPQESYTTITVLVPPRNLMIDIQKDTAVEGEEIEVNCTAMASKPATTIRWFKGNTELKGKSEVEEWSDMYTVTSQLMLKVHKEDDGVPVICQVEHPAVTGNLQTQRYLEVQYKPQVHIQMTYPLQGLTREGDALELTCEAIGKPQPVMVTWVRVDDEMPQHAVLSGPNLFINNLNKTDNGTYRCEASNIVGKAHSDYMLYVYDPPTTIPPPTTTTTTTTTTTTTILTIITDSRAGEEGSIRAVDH

B1: HW-8 chimeric rabbit-human IgG1 LA/LA/PG (antibody, V domains shown)
VH: QSLEESGGRLVTPGTPLTLTCTVSGFSLSSYAMSWVRQAPGKGLEWIGAISTGGSTTYASWAKGRFTISKTSSTTVDLKMTSLTTEDTATYFCVRHFRLWGPGTLVTISS
VL: QVLTQTPSSVSAAVGGTVTIKCQASQSIGSALAWFQQKPGQRPKLLIYRASNLASGVPSRFKGSGSGTEFALTISGVQREDAATYYCLGGAAAVWAFGAGTNVEIKR
notes: Fc-silenced (L234A/L235A/P329G) IgG1, kappa; Alexa Fluor 647-labeled in single-step flow cytometry; Cluster C-45
B2: HW-56 chimeric rabbit-human IgG1 LA/LA/PG (antibody, V domains shown)
VH: QSVKESEGGLFKPTDTLTLTCTASGFTVSTNAVTWVRQAPGNGLEYIGTIGRSGSAYFASWAKRRSTLTRDINLNTVTLKMTSLTAADTATYFCVRGSPGYRTAISIWGPGTLVTISS
VL: AVMTQTPSSTSAAVEGTVTINCQASQSISNRLSWFQQKPGQPPKLLIYQASTLASGVPSRFKGSGSGTEFTLTISGVQREDAATYYCLGSYSSSDASFGGGTKLEIKR
notes: as for B1
B3: HW-81 chimeric rabbit-human IgG1 LA/LA/PG (antibody, V domains shown)
VH: QKQLVESGGGLVTPGGTLTLTCTVSGFSLSSNGVSWVRQAPGKGLEYIGLIRSIGSTYYATWAKGRFTISKTSTTVDLKITSPTTEDTATYFCARGGYRNGFKLWGPGTLVTVSS
VL: QPVLTQSPSVSAALGASAKLTCTLSSAHKTYYIEWYQQQHPGKAPRYLMQLQSDGSYTKGTGVPDRFSGSSSGADRYLIISSVQAEDEADYICGVIDSAVYVFGGGTQLTVTG
notes: Fc-silenced (L234A/L235A/P329G) IgG1, lambda; Alexa Fluor 647-labeled in single-step flow cytometry; Cluster C-45
B4: HW-97 chimeric rabbit-human IgG1 LA/LA/PG (antibody, V domains shown)
VH: QKQLVESGGRLVTPGTPLTLTCTVTGIDLSSHGMSWVRQAPGKGLEWIGVIYPSGSTWYASWARGRFTISKTSTTVDLKMTSLTTEDTATHFCARGDVGGADNNIWGPGTLVTVSS
VL: SFVLTQPASVQVDLGQTVSLTCTAETLSRSYASWYQQKPGQAPVLLIYRDTSRPSGVPDRFSGSSSGNTATLTISGAQAGDEADYYCATSDGSGSSYQYVFGGGTQLTVTG
notes: Fc-silenced (L234A/L235A/P329G) IgG1, lambda; Alexa Fluor 647-labeled in single-step flow cytometry; Prototype of cluster C-97
B5: HW-101 chimeric rabbit-human IgG1 LA/LA/PG (antibody, V domains shown)
VH: QEQLVESGGRLVTPGTPLTLTCKASGFSLGKYDMSWVRQAPGKGLEWIGTIYAGSGSTWYASWAKGRFTISKTSTTVDLKMTSLTTEDTATYFCARDFLGVNSIWGPGTLVTISS
VL: B4 VL with D13N, E25D, G40D, Y48H, S65N, S96N, Y97F, Q98H, Y99F
notes: Fc-silenced (L234A/L235A/P329G) IgG1, lambda; Alexa Fluor 647-labeled in single-step flow cytometry; Cluster C-97
B6: HW-113 chimeric rabbit-human IgG1 LA/LA/PG (antibody, V domains shown)
VH: QKQLVESGGGLVQPGGSLTLTCTVSGFSLNKYYMGWFRQAPGKGLEWIGVISRSGDTYYSSWAKGRFTISKASTTVDLRITSPTTEDTATYFCARDASSPGFHGDRLDLWGQGTLVTVSS
VL: B4 VL with D13N, E25D, S93I, S96N, Q98L, Y99W
notes: Fc-silenced (L234A/L235A/P329G) IgG1, lambda; Alexa Fluor 647-labeled in single-step flow cytometry

Target: T1, IGSF11 (VSIG3)
Assay: ELISA on coated IGSF11-Fc
Procedure: (§1) Recombinant purified ECDs (50-150 ng) of each putative target protein were coated, incubated with 150 ng of the indicated primary antibody, and binding was detected using a peroxidase-conjugated anti-human Fab secondary antibody. Heatmap represents averages of technical triplicates. (8B) Target validation via siRNA knockdown. H929 cells were transfected with siRNA pools targeting the putative antibody targets ICAM1, CADM1, and PTPRG. Cells were then subjected to cognate IgG binding analysis via flow cytometry. (NT, non-targeting siRNA).
(§2) ELISA ELISA was conducted as described previously. Briefly, 50-150 ng of antigen was coated overnight in half-area 96-well plates at 4° C., blocked with 3% BSA at 37° C. for 1 h, and 150 ng of chimeric rabbit/human IgG1 was added, incubating for 2 h at 37° C. […] After incubating at 37° C. for 15 min-1 h (depending on intensity of controls), data were acquired using a SpectraMax M5 plate reader (Molecular Devices).

Binder | binding result
B1 | no binding (tested: 150 ng IgG1 per well)
B2 | no binding (tested: 150 ng IgG1 per well)
B3 | no binding (tested: 150 ng IgG1 per well)
B4 | no binding (tested: 150 ng IgG1 per well)
B5 | no binding (tested: 150 ng IgG1 per well)
B6 | no binding (tested: 150 ng IgG1 per well)

Target: T2, HHLA2 (B7-H7)
Assay: ELISA on coated HHLA2-Fc, 150 ng IgG1; None 0.087
Procedure: as §1, §2

Binder | ELISA Absorbance (405 nm-570 nm)
B1 | 0.073
B2 | 0.076
B3 | 0.072
B4 | 0.079
B5 | 0.069
B6 | 0.071

target: T3, PTPRG-Fc (ECD of human PTPRG, aa …); assay: ELISA on coated PTPRG-Fc, 150 ng IgG1; None 0.117
Procedure: as §1, §2

Binder | ELISA Absorbance (405 nm-570 nm)
B1 | 0.069
B2 | 0.102
B3 | 0.122
B4 | 0.096
B5 | 0.097
B6 | 0.071

Target: T4, ANXA1
Assay: ELISA on coated ANXA1-His, 150 ng IgG1; None 0.098
Procedure: as §1, §2

Binder | ELISA Absorbance (405 nm-570 nm)
B1 | 0.077
B2 | 0.082
B3 | 0.065
B4 | 0.075
B5 | 0.066
B6 | 0.073

target: T5, CADM1-His (Acro Biosystems); assay: ELISA on coated CADM1-His, 150 ng IgG1; None 0.059
Procedure: as §1, §2

Binder | ELISA Absorbance (405 nm-570 nm)
B1 | 0.05
B2 | 0.059
B3 | 0.05
B4 | 0.679
B5 | 0.525
B6 | 0.058

Target: T1, IGSF11 (VSIG3)
Assay: ELISA on coated IGSF11-Fc, 150 ng IgG1; None 0.090
Procedure: as §1, §2

Binder | ELISA Absorbance (405 nm-570 nm)
B1 | 0.069
B2 | 0.076
B3 | 0.065
B4 | 0.078
B5 | 0.066
B6 | 0.075
